# Data from patent US6835378B2, “Method and compositions for inhibiting thrombin-induced coagulation” (The Texas A&M University System University, priority 2001, dated 2004).
# “Also recorded” adds a separate entry of the source.
# B1: rSdrG(50-597): recombinant His-tagged A region (residues 50-597) of SdrG, a fibrinogen-binding MSCRAMM from S. epidermidis (protein)
# chain: HHHHHHAEENTVQDVKDSNMDDELSDSNDQSSNEEKNDVINNSQSINTDDDNQIKKEETNSNDAIENRSKDITQSTTNVDENEATFLQKTPQDNTQLKEEVVKEPSSVESSNSSMDTAQQPSHTTINSEASIQTSDNEENSRVSDFANSKIIESNTESNKEENTIEQPNKVREDSITSQPSSYKNIDEKISNQDELLNLPINEYENKVRPLSTTSAQPSSKRVTVNQLAAEQGSNVNHLIKVTDQSITEGYDDSDGIIKAHDAENLIYDVTFEVDDKVKSGDTMTVNIDKNTVPSDLTDSFAIPKIKDNSGEIIATGTYDNTNKQITYTFTDYVDKYENIKAHLKLTSYIDKSKVPNNNTKLDVEYKTALSSVNKTITVEYQKPNENRTANLQSMFTNIDTKNHTVEQTIYINPLRYSAKETNVNISGNGDEGSTIIDDSTIIKVYKVGDNQNLPDSNRIYDYSEYEDVTNDDYAQLGNNNDVNINFGNIDSPYIIKVISKYDPNKDDYTTIQQTVTMQTTINEYTGEFRTASYDNTIAFSTSSGQGQGDLPPE
# Columns and labels:
# Fg Bβ chain = target: T1, Fg Bβ chain (Homo sapiens, UniProt P02675); assay: Western ligand blot with biotin labeled rSdrG(50-597); assay type: binding
# T1 construct: recognized the mature recombinant Bβ chain (residues 1-462); made in house; host or cells: E. coli
# T1 sequence (P02675 31-491): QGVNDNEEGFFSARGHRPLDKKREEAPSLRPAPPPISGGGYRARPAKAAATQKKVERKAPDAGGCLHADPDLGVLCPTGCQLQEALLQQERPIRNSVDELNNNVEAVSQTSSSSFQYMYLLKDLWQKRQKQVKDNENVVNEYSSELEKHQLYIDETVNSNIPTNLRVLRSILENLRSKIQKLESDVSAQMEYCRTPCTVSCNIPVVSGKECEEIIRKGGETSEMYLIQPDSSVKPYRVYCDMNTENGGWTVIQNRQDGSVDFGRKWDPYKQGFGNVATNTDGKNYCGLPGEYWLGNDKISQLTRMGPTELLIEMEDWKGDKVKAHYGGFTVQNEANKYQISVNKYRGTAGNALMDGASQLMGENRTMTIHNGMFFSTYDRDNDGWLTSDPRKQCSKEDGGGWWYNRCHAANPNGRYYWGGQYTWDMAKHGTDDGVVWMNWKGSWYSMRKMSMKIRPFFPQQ
# Text: Construction of Fg Bβ Chain Truncates—An E. coli strain harboring plasmid p668 which contains the cDNA for the Fg Bβ chain was kindly provided by Dr. Susan T. Lord (University of North Carolina, Chapel Hill, N.C.). The 1525 bp fragment from p668 was subcloned into the plasmid pQE30 to produce recombinant mature Bβ chain with a N-terminal His-tag. Additional Bβ chain constructs (FIG. 3A) were made by subcloning into either pQE30 or pGEX-KG (Pharmacia) to produce recombinant proteins with a N-terminal His-tag or Glutathione S-transferase (GST) fusion.
# Western Ligand Blot Analysis—Whole E. coli lysates harboring each respective Fg Bβ chain construct were fractionated by SDS-PAGE and the separated proteins were transferred to nitrocellulose membrane with a semi-dry transfer cell (Bio-Rad). The membrane was incubated overnight with 5% (w/v) non-fat dry milk in PBS, pH 7.5 at 4° C. to saturate non-specific binding sites. After blocking, the membrane was washed three times with PBST and then incubated with biotin labeled rSdrG(50-597) (0.5 μM) for 1 h at room temperature. rSdrG(50-597) was biotin labeled using EZ Link-sulfo-NHS-LC biotin (Sigma) according to the manufacturers' instructions. After three more washes with PBST, the blot was incubated with a 1:5000 dilution of streptavidin-AP conjugated for 1 h at room temperature and developed with 5-bromo-4-chloro-3-indolyl phosphate (BCIP) and nitro blue tetrazolium (NBT) (Biorad) in carbonate:bicarbonate buffer (14 mM Na2CO3, 36 mM NaHCO3, 5 mM MgCl2:6H2O, pH 9.8) for ˜15 min at room temperature.
# [1] = test system: thrombin catalyzed release of fibrinopeptides A and B; assay: Release of fibrinopeptides by thrombin, HPLC; assay type: biochemical; conditions: for Percentage of FpB released: Fg 0.3 μM
# Experimental: Release of Fibrinopeptides by Thrombin—The thrombin catalyzed release of fibrinopeptides A and B was analyzed as follows. Fg solutions were diluted to 0.3 μM in 20 mM HEPES (pH 7.4), 150 mM NaCl, 5 mM ε-aminocapriotic acid, and 1.0 mM CaCl2. ε-aminocapriotic acid was included to inhibit any possible plasmin contaminant activity. […] The tubes were mixed by inversion and 500 μl aliquots were removed for the 15 and 60 min time points. The aliquots were incubated at room temperature and then immersed in boiling water for 15 min to halt the reaction. The aliquots were stored on ice for the remainder of the time course. At the end of the reaction the samples were centrifuged for 15 min at 4° C., and the supernatants were removed and stored at −20° C. overnight prior to analysis by high performance liquid chromatography.
# The fibrinopeptides released were monitored by reverse phase HPLC essentially as described (19). The samples were loaded onto a Waters Delta-Pak C18 column equilibrated with buffer A (25 mM NaH2PO4/Na2HPO4, pH 6.0). Fibrinopeptides were eluted with a linear gradient from 100% buffer A to 40% buffer B (Buffer A with 50% acetonitrile) and monitored by absorbance at 205 nm. Fibrinopeptide peak area was determined using the software Waters Millennium^32.
# [2] = test system: fibronectin, collagen types I and IV, vitronectin, laminin and thrombospondin; assay: ELISA: ligand specificity on other immobilized ECM proteins; assay type: binding; conditions: data not shown
molecule,measurement,setting,value
B1,"binding to truncates lacking the N-terminal 25 residues, rβ(25-95) and rβ(25-195)",Fg Bβ chain; 0.5 μM biotin labeled protein,failed to bind
same,"recognition of recombinant Bβ chain (1-462) and truncates 1-341, 1-220, 1-195, 1-95",Fg Bβ chain; 0.5 μM biotin labeled protein,recognized
same,recognition of Fg chains,"Fg Bβ chain; native Fg chains, data not shown","recognized the Bβ chain, but not the Aα or γ chains of Fg"
same,FpA release by thrombin,[1],no apparent interference
same,FpB release by thrombin,[1]; 1:1 ratio of rSdrG(50-597) to Fg,significant decrease
same,FpB release by thrombin,[1]; 5:1 ratio (1.5 μM rSdrG(50-597)),decrease in the amount of FpB released; also recorded: effectively able to inhibit the release of FpB
same,Percentage of FpB released,"[1]; SdrG:Fg 1:1, 15 min",65.4%
same,Percentage of FpB released,"[1]; SdrG:Fg 1:1, 60 min",45.2%
same,Percentage of FpB released,"[1]; SdrG:Fg 2:1, 15 min",13.9%
same,Percentage of FpB released,"[1]; SdrG:Fg 2:1, 60 min",17.4%
same,Percentage of FpB released,"[1]; SdrG:Fg 5:1, 15 min",<0.001%
same,Percentage of FpB released,"[1]; SdrG:Fg 5:1, 60 min",<0.001%
same,binding to other immobilized ECM proteins,[2],failed to bind
